Source: publication PMC12455665, “Convergent construction of N-terminally modified CCL5 chemokines for photoaffinity receptor pull-down using cross-aldol bioconjugations” (RSC Chemical Biology, 2025)

Target: T1, CCR5 chemokine receptor on CHO-CCR5 cells (UniProt P51681 1-352)
T1 construct: also called the receptor; source: Chinese hamster ovary cell line (CHO), stably expressing CCR5
Experiment: not stated; receptor binding of CCL5 P2G against wild-type CCL5 (Fig. S14); methods in the SI, not shown

T1 sequence (P51681 whole entry): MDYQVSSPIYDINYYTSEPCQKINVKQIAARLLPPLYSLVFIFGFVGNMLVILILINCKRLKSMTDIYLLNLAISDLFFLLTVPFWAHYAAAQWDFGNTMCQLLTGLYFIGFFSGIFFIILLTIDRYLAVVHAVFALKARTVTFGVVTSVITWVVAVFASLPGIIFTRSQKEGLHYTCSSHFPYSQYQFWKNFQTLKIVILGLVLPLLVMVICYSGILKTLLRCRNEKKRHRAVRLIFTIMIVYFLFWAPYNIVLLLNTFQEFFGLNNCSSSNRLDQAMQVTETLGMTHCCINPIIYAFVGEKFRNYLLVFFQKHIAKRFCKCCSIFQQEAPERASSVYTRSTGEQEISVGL

fold reduction of binding against wild-type CCL5: 3 fold
B1: CCL5 P2G 1 (ligand, human, UniProt P13501 24-91, looked up)
chain: SGYSSDTTPCCFAYIARPLPRAHIKEYFYTSGKCSNPAVVFVTRKNRQVCANPEKKWVREYINSLEMS
notes: Human C–C chemokine ligand 5 (CCL5, RANTES), with its native N-terminal serine after traceless SUMO cleavage, point mutant P2G; also called CCL5 point mutant (P2G); CCL5 P2G variant; source: E. coli SHuffle LysY, purified (His-SUMO tag capture, SUMO protease cleavage); not shown: His, N-terminal, cleaved; SUMO, N-terminal, cleaved
